Reference: patent US20110229406A1 (U3 PHARMA, published 2011)

Key:
[1] = target: T1, rat HER-3 ECD (V5-His fusion protein) (rat, UniProt Q62799 20-643); assay: ELISA, column Rat XR (XR = cross-reactive)
T1 construct: extracellular domain; not shown: V5-His tag

[2] = target: T2, reduced, denatured HER-3-His tagged purified ECD protein (human, UniProt P21860 20-643); assay: dot blot of reduced, denatured HER-3-His ECD
T2 construct: extracellular domain; Same protein as m2, but reduced and denatured (disulfide bonds broken); not shown: His tag

[3] = target: T3, HER-3 (human, on cells) (human, UniProt P21860 20-1342); assay: indirect FACS Scatchard analysis on cells
T3 construct: whole, on cells; also called ErbB3; HER-3+ cell lines
Method: Therefore, 10⁵ cells of interest or SK-Br 3 cells were harvested with 10 mM EDTA in PBS, washed once with FACS buffer (PBS, 3% FCS, 0.4% azide) and seeded on a 96-well round bottom plate. The cells were spun for 3 min at 1000 rpm to remove supernatant and then resuspended with α-HER-3 antibody (3 μg/ml) or with antibody dilutions (100 μl/well) starting with 20 μg/ml human monoclonal antibody in FACS buffer, diluted in 1:2 dilution steps. Cell suspensions were incubated on ice for 1 hr, washed twice with FACS buffer and resuspended with secondary antibody (100 μl/well) donkey-anti-human-PE (Jackson) diluted 1:50 in FACS buffer. The cell suspensions were incubated on ice and in the dark for 30 min, washed twice with FACS buffer and analyzed (FACS, Beckman Coulter). According to the FACS Scatchard analysis, the fluorescence mean was calculated for each measurement. Background staining (=without 1st antibody) was subtracted from each fluorescence mean. Scatchard plot with x-value=fluorescence mean and y-value=fluorescence mean/concentration of mAb (nM) was generated.

T1 sequence (Q62799 20-643): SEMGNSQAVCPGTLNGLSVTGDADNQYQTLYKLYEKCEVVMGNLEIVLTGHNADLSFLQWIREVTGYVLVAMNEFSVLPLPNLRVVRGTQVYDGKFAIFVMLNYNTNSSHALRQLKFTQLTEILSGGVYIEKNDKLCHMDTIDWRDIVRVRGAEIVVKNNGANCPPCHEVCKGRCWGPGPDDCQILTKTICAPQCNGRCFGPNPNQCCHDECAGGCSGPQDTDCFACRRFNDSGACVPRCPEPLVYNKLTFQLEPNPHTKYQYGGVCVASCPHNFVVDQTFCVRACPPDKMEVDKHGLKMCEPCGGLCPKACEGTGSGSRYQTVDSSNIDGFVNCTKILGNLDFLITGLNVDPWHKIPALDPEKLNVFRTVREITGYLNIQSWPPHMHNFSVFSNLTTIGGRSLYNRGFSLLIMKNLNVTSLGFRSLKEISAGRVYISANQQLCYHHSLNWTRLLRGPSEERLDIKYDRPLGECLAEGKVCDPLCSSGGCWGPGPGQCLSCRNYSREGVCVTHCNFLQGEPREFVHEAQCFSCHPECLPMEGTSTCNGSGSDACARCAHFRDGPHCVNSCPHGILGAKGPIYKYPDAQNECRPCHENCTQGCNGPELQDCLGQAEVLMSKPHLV

| Binder | binding result [1] | binding result [2] | Kd [3] [nM] |
| --- | --- | --- | --- |
| U1-49 (antibody, human IgG1, V domains shown, also called human IgG1 HER-3 mAb, U1-49) VH: not shown VL: DILMTQTPLSLSVTPGQPASISCKSSQSLLLSDGGTYLYWYLQKPGQPPQLLIYEVSNRFSGVPDRFSGSGSGTDFTLKISRVEAEDVGVYYCMQSMQLPITFGQGTRLEIK | no binding | no binding | 1 |
| U1-51 (antibody, V domains shown) VH: QVQLQESGPGLVKPSETLSLTCTVSGGSISSYYWSWIRQPPGKGLEWIGYIYYSGSTNYNPSLKSRVTISVDTSKHQFSLKLSSVTAADTAVYYCARDSSYYDSSGYYLYYYAMDVWGQGTTVTVS VL: not shown |  |  | 132 |
| U1-53 (antibody, V domains shown, also called mAb U1-53) VH: EVQLVESGGGLVQPGGSLRLSCAASGFTFSIYSMNWVRQAPGKGLEWVSYISSSSSTIYYADSVKGRFTISRDNAKNSLYLQMNSLRDEDTAVYYCARDRGDFDAFDIWGQGTMVTVSS VL: DIQMTQSPSSLSASVGDRVTITCQASQDITNYLNWYQQKPGKAPKLLIYDASNLETGVPSRFSGSGSGTDFTFTISSLQPEDIATYNCQQCENFPITFGQGTRLEIK | no binding | no binding | 0.082 |
| U1-47 (antibody, V domains shown) VH: QVQLQQSGPGLVKPSQTLSLTCAISGDSVSSNSAAWNWIRQSPSRGLEWLGRTYYRSKWYNDYAVSVKSRITINPDTSKNQFSLQLNSVTPEDTAVYYCARDYYGSGSFYYYYGMDVWGQGTTVTVS VL: not shown |  |  | 9.38 |
| U1-41 (antibody, V domains shown) VH: QVQLQESGPGLVKPSQTLSLTCTVSGGSISSGGYYWSWIRQHPGKGLEWIGYIYYSGSTYYNPSLKSRVTISVDTSKNQFSLKLSSVTAADTAVYFCARDRELEGYSNYYGVDVWGQGTTVTVS VL: DIQMTQSPSSLSASVGDRVTITCRASQAISNYLNWYQQKPGKAPKLLIYAASSLQSGVPSRFSGSGSGTDFTLTISSLQPEDFATYYCQQNNSLPITFGQGTRLEIK |  |  | 0.18 |
| U1-43 (antibody, V domains shown) VH: QVQLQESGPGLVKPSQTLSLTCTVSGGSISSGGYYWSWIRQHPGKGLEWIGYIYYSGSTYYNPSLRSRVTISVDTSKNQFSLKLSSVTAADTAVYYCARDREREWDDYGDPQGMDVWGQGTTVTVS VL: DIQMTQSPSSLSASVGDRVTITCRASQSISSYLHWYQQKPGKAPKLLIHAASSLQSGVPSRFSGSGSGTDFTLTISSLQPEDFATYYCQQSYSNPLTFGGGTKVEIQ |  |  | 0.57 |
| U1-44 (antibody, V domains shown) VH: EVQLVQSGAEVKKPGESLKISCKGSGYSFTSYWIGWVRQMPGKGLEWMGIIWPGDSDTIYSPSFQGQVTISADKSISTAYLQWSSLKASDTAMYYCARHENYGDYNYWGQGTLVTVSS VL: DIQMTQSPSSLSASVGDRVTITCRASQSIRSYLNWYQQKPGNAPKLLIYAASSLQSGVPSRFSGSGSGTDFTLTISSLQPEDFALYYCQQSISSPLTFGGGTKVEIK |  |  | 4 |
| U1-61 (antibody, V domains shown) VH: QVQLQESGPGLVKPSQTLSLTCTVSGVSISSGGYYWSWIRQHPGMGLEWIGYIYYSGSTYYNPSLKSRVTISEDTSKNQFSLKLSSVTAADTAVYYCARDSESEYSSSSNYGMDVWGQGTTVTVS VL: DIQMTQSPSSLSASVGDRITITCRASQTISSYLNWYQQKPGKAPKLLIYAASSLQGGVPSRFSGSVSGTDFTLTVSSLQPEDFATYYCQQSYSNPLTFGGGTKVEIK |  |  | 0.13 |
| U1-39 (antibody, V domains shown) VH: EVQLVESGGGLIQPGGSLRLSCAASGFTVSSNYMSWVRQAPGKGLDWVSVIYSGGSTYYADSVKGRFTISRDNSKNTLYLQMNSLRAEDTAVYYCARGQWLDVWGQGTTVTVSS VL: DIVMTQSPLSLPVTPGEPASISCRSSQSLLHSNGYNYLDWYLQRPGQSPQLLFYLGFHRASGVPDRFSGSGSGTDFTLKISRVEAEDVGVYYCRQALQTPLTFGGGTKVEIK |  |  | 102 |
| U1-62 (antibody) chain 1: EVQLVQSGAEVKKPGESLKISCKGSGYSFTSYWIGWVRQMPGKGLEWMGIIYPGDSDTRYSPSFQGQVTMSADKSISTAYLQLSSHEGLGHRHVLLCETDGWKLRTSRVIETSWGQGTTVTVS chain 2: not shown |  |  | 20.4 |
| U1-58 (antibody, V domains shown) VH: QVQLVESGGGVVQPGRSLRLSCAASGFTFSSYGMHWVRQAPGKGLEWVAVIWYDGSNKYYADSVKGRFTISRDNSKNTLYLQMNSLRAEDTAVYYCARAARLDYYYGMDVWGQGTTVTVSS VL: DIQMTQSPSSLSASVGDRVSITCRASQSINSYLNWFQQKPGKAPQLLIFGASGLQSGVPSRFSGSGSGTDFTLTINSLQPEDFATYYCQQSYSSPLTFGQGTRLEIK |  |  | 6.4 |
| U1-59 (antibody, human IgG1, V domains shown, human IgG1 (gamma 1 constant) with human kappa constant region; also called mAb U1-59; IgG1 mAb consisting of the VH4-34 and the B3 kappa chain) VH: QVQLQQWGAGLLKPSETLSLTCAVYGGSFSGYYWSWIRQPPGKGLEWIGEINHSGSTNYNPSLKSRVTISVETSKNQFSLKLSSVTAADTAVYYCARDKWTWYFDLWGRGTLVTVSS VL: not shown | binds |  | 3.69 |
| U1-55.1 (antibody, V domains shown) VH: QVQLQESGPGLVKPSETLSLTCTVSGGSVSSGGYYWNWIRQPPGKGLEWIGYINYSGSTNYNPSLKSRVTISVDTSKNQFSLKLSSVTAADTAVYYCARDRELELYYYYYGMDVWGQGTTVTVS VL: not shown |  |  | 3.7 |
| U1-24 (antibody, V domains shown) VH: QVQLQESGPGLVKPSQTLSLTCTVSGGSISSGDYYWSWIRQHPGKGLEWIGYIYYSGSTYYNPSLKSRVTISVDTSKNQFSLKLSSVTAADTAVYYCARADYDFWNGYFDYWGQGTLVTVSS VL: DIQMTQSPSSLSASVGDRVTITCRASQGIRNDLGWYQQKPGKAPKRLIYAASSLQSGVPSRFSGSGSGTEFTLTISSLQPEDFATYYCLQHNNYPWTFGQGTKVEIK |  |  | 0.06 |
| U1-7 (antibody, V domains shown) VH: QVQLQESGPGLVKPSQTLSLTCTVSGGSISSGDYYWSWIRQHPGKGLEWIGYIYYSGSTYYNPSLKSRVTISVDTSKNQFSLKLSSVTAADTAVYYCARADYDFWSGYFDYWGQGTLVTVSS VL: DFQMTQSPSSLSASVGDRVTITCRASQDIRNDLGWYRQKPGKAPKRLIYAASSLQSGVPSRFSGSGSGTEFTLTISSLQPEDFATYYCLQHNSYPWTFGQGTKVEIK |  |  | 0.02 |
